Data from publication PMC10666276 (Biochemistry, 2023).

Assays:
[1] = test system: NC(=O)c1ccc[n+]([C@@H]2O[C@H](COP(=O)(O)OP(=O)(O)OC[C@H]3O[C@@H](n4cnc5c4ncn4ccnc54)[C@H](O)[C@@H]3O)[C@@H](O)[C@H]2O)c1; test: purified protein; conditions: 50 mM sodium acetate pH 5.5, 150 mM NaCl, 500 μM CaCl2, 25 °C, 10 ng enzyme
Description: fluorometric hydrolysis assay, Michaelis-Menten fit on AfNADase

[2] = molecular target: AfNADase^D219A/E220A (Aspergillus fumigatus) (UniProt Q4WL81); test: crystal structure
SEC = molecular target: the molecule itself; test: SEC

AfNADase (Aspergillus fumigatus Af293)
Km [1]: 54.8 ± 15.3 µM
Vmax [1]: 4570 µmol/min/mg

AfNADase^D219A/E220A (from UniProt Q4WL81) (enzyme)
stoichiometry N [2]: 2

B1: Aspergillus fumigatus NADase (AfNADase), wild type (enzyme)
chain: LQHTEDSLFPARCWPDPCAGITFQNDTYVCGDPRLGPVVLPQKFPLNNELRTYARFGALCPAEFLDKWATDVAPNGTYIYPPANGFALDTEEQPILGNATLPVGMKLDRFGSEYGTFLAPLGAPYIERSLPPSNLNTFDGMYPYNYHVYQVTKEFVVGLGPIAPWFEQPGMGTQFVTYTNVLGLIDDGYLRRLDESEYDEKVEYSNPYTPGPNQ
modifications: N-linked glycosylation sites (as observed in the wild-type structure 6YGE)
binding result (SEC): binds
